From patent US20240287172A1 (SCIRHOM, published 2024)

T1: hiR2-FL-T578A-T7 (human, UniProt Q6PJF5 1-856)
T1 sequence: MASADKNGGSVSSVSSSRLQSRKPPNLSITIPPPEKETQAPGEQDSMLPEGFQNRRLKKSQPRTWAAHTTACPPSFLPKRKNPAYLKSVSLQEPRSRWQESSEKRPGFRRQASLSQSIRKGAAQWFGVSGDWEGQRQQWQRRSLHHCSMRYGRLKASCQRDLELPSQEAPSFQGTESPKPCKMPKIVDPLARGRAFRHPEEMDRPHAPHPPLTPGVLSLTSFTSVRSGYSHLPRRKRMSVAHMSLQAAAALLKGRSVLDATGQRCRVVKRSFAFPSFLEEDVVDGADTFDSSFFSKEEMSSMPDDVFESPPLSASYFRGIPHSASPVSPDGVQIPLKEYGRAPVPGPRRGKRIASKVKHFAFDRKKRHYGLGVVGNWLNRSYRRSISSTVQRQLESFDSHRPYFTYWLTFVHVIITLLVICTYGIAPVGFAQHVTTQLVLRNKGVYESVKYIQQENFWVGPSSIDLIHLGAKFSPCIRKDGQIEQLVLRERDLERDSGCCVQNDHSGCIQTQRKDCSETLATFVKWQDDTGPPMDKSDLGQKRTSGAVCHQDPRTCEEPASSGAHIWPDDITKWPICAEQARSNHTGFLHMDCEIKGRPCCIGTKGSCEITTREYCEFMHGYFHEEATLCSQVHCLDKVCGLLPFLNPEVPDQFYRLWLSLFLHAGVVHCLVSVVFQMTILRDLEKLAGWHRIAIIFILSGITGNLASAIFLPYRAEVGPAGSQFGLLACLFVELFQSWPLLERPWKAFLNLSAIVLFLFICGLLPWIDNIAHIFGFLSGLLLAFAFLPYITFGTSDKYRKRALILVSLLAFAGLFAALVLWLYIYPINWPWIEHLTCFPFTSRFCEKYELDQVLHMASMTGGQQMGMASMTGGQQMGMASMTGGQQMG

T2: hiR2-FL-Q510A-T7 (human, UniProt Q6PJF5 1-856)
T2 construct: reduced surface expression reported
T2 sequence: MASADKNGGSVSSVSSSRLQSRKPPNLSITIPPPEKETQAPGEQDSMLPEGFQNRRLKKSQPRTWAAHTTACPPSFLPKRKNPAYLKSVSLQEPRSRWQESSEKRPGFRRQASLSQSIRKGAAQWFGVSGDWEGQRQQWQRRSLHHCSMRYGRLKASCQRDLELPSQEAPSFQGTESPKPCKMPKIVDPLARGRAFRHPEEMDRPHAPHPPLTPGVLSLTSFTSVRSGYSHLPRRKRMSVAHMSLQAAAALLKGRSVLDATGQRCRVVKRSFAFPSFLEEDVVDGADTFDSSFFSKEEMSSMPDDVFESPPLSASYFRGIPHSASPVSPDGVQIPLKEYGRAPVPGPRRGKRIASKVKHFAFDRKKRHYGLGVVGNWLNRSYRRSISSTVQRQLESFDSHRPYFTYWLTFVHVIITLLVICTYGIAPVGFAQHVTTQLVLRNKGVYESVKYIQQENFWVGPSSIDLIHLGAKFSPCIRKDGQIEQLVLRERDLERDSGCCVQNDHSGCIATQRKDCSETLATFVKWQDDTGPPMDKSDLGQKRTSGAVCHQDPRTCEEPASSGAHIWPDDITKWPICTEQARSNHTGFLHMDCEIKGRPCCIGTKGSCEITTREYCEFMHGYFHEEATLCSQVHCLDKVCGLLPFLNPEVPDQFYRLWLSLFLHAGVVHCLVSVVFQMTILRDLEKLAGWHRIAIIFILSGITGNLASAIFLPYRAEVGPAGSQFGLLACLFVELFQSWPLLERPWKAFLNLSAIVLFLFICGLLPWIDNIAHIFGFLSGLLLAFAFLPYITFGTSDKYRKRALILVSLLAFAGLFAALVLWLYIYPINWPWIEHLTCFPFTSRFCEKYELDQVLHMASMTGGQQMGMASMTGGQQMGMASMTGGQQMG

B1: antibody 3 (antibody, V domains shown)
VH: QVTLKESGPGILQPSQTLSLTCSFSGFSLTTFAMGIGWVRQPSGKGLEWLAHIWWDGEKYNNPVLKSRLTISKDTSKNQVFLRIANVDTPDTATYYCARISSIYYIIDNWGQGTSVTVSS
VL: DIVLTQSPATLSVTPGHSVSLSCRASQSISNNLHWYQKKSHESPRLLIKYVSQSISGIPSRFSGSGSGTDFTLSINSVETEDFGMYFCQQSYNWPLTFGAGTKLELK
notes: mouse IgG, kappa light chain; also called clone #3; purified antibody 3
B2: antibody 50 (antibody, V domains shown)
VH: QVQLQQSGAELVRPGASVKVSCKASGYAFSNYLIEWVKQRPGQGLEWIGVINPGSGFTKYNEKFKGKATLTADKSSSTAYMQLSSLTSEDSAVYFCARGLYRAMDYWGQGTSVTVSS
VL: DIQMTQSPASQSASLGESVTITCLASQTIGTWLAWYQQKPGKSPQLLIYAAASLADGVPSRFSGGGSGTKFSFKISSLQAEDFVNYYCQQIYSTPYTFGGGTKLEIK
notes: mouse IgG, kappa light chain; also called clone #50; purified antibody 50

Key:
hiR2-FL-T578A-T7 = biological target: T1, hiR2-FL-T578A-T7; assay: FACS on MEF-DKO cells expressing the variant, 3 µg/ml antibody
Method in brief: (§1)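 Read-out is PE fluorescence by flow cytometry after two-step staining: antibody at 3 μg/ml for 1 hour on ice, then PE-labelled goat anti-mouse IgG F(ab′)2 (1:100) for 1 hour on ice.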

hiR2-FL-Q510A-T7 = biological target: T2, hiR2-FL-Q510A-T7; assay: as above
Method in brief: as §1

Row | Binder | loss of binding vs wild type (hiR2-FL-T578A-T7) | loss of binding vs wild type (hiR2-FL-Q510A-T7)
1 | B1 | ≥ 30% | 
2 | B2 |  | ≥ 30%
